The source of these data is the supplement of paper PMC5998384.

The subject of data set [1] is HeLa Kyoto. Briefly: solubility in G1/S (NP-40 vs SDS abundance) (log2 ratio); higher = more soluble. Particulars: cell cycle stage: G1/S.
Data set [2] has as its system HeLa Kyoto. Briefly: melting temperature (median over replicates), in situ; higher = more thermally stable.
Data set [3] deals with HeLa Kyoto. Briefly: solubility change mitosis vs G1/S (difference of NP-40 vs SDS log2 ratios) (log2 ratio difference); higher = more soluble in mitosis.
Data set [4] has as its system HeLa Kyoto. As to the kind of experiment: thermal stability score vs G1/S (z-score of summed log2 fold changes over temperatures); higher = more thermally stable than in G1/S.
Where [5] appears, read: cell cycle stage: early G1 (4.5 h after nocodazole release).
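For melting temperature (median over replicates), in situ in this document: HeLa Kyoto cells synchronized by double thymidine or nocodazole block, proteins quantified by TMT10plex mass spectrometry, three independent biological replicates.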
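For solubility change mitosis vs G1/S (difference of NP-40 vs SDS log2 ratios) in this document: synchronized HeLa Kyoto cells (double thymidine block for G1/S, nocodazole release for mitosis), protein amounts in NP-40 versus SDS lysates quantified by mass spectrometry, three biological replicates.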
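For solubility in G1/S (NP-40 vs SDS abundance) in this document: HeLa Kyoto cells arrested at G1/S by double thymidine block, proteins quantified by TMT10plex mass spectrometry in mild NP-40 versus SDS extracts, three biological replicates.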
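For thermal stability score vs G1/S (z-score of summed log2 fold changes over temperatures) in this document: synchronized HeLa Kyoto cells, proteins quantified by TMT10plex mass spectrometry, three biological replicates, mitosis taken 0.5 h after nocodazole release, G1/S directly after double thymidine block.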

With “MYIKQVIIQGFRSYRDQTIVDPFSSKHNVIVGRNGSGKSNFFYAIQFVLSDEFSHLRPEQRLALLHEGTGPRVISAFVEIIFDNSDNRLPIDKEEVSLRRVIGAKKDQYFLDKKMVTKNDVMNLLESAGFSRSNPYYIVKQGKINQMATAPDSQRLKLLREVAGTRVYDERKEESISLMKETEGKREKINELLKYIEERLHTLEEEKEELAQYQKWDKMRRALEYTIYNQELNETRAKLDELSAKRETSGEKSRQLRDAQQDARDKMEDIERQVRELKTKISAMKEEKEQLSAERQEQIKQRTKLELKAKDLQDELAGNSEQRKRLLKERQKLLEKIEEKQKELAETEPKFNSVKEKEERGIARLAQATQERTDLYAKQGRGSQFTSKEERDKWIKKELKSLDQAINDKKRQIAAIHKDLEDTEANKEKNLEQYNKLDQDLNEVKARVEELDRKYYEVKNKKDELQSERNYLWREENAEQQALAAKREDLEKKQQLLRAATGKAILNGIDSINKVLDHFRRKGINQHVQNGYHGIVMNNFECEPAFYTCVEVTAGNRLFYHIVDSDEVSTKILMEFNKMNLPGEVTFLPLNKLDVRDTAYPETNDAIPMISKLRYNPRFDKAFKHVFGKTLICRSMEVSTQLARAFTMDCITLEGDQVSHRGALTGGYYDTRKSRLELQKDVRKAEEELGELEAKLNENLRRNIERINNEIDQLMNQMQQIETQQRKFKASRDSILSEMKMLKEKRQQSEKTFMPKQRSLQSLEASLHAMESTRESLKAELGTDLLSQLSLEDQKRVDALNDEIRQLQQENRQLLNERIKLEGIITRVETYLNENLRKRLDQVEQELNELRETEGGTVLTATTSELEAINKRVKDTMARSEDLDNSIDKTEAGIKELQKSMERWKNMEKEHMDAINHDTKELEKMTNRQGMLLKKKEECMKKIRELGSLPQEAFEKYQTLSLKQLFRKLEQCNTELKKYSHVNKKALDQFVNFSEQKEKLIKRQEELDRGYKSIMELMNVLELRKYEAIQLTFKQVSKNFSEVFQKLVPGGKATLVMKKGDVEGSQSQDEGEGSGESERGSGSQSSVPSVDQFTGVGIRVSFTGKQGEMREMQQLSGGQKSLVALALIFAIQKCDPAPFYLFDEIDQALDAQHRKAVSDMIMELAVHAQFITTTFRPELLESADKFYGVKFRNKVSHIDVITAEMAKDFVEDDTTHG [SMC3]”, the “solubility in G1/S (log2)” value in data set [1] is -0.182. Further, the melting temperature in data set [2] (cell cycle stage: G1/S) turned out to be 52.6 °C; in data set [2] (cell cycle stage: mitosis), 51.5 °C. In addition, in data set [3], the “solubility change mitosis (log2)” value was -0.0245. Further, the thermal stability score in data set [4] (setting [5]) was -0.978; in data set [4] (cell cycle stage: mitosis) it was -1.78.
In the case of HELZ, the “solubility in G1/S (log2)” value in data set [1] amounted to 0.00285. Further, the melting temperature in data set [2] (cell cycle stage: G1/S) and in data set [2] (cell cycle stage: mitosis) was 52.3 °C each time. The “solubility change mitosis (log2)” value in data set [3] was -0.131. Besides, the thermal stability score was -0.338 in data set [4] (setting [5]) and -0.16 in data set [4] (cell cycle stage: mitosis).
“MAGKAHRLSAEERDQLLPNLRAVGWNELEGRDAIFKQFHFKDFNRAFGFMTRVALQAEKLDHHPEWFNVYNKVHITLSTHECAGLSERDINLASFIEQVAVSMT [PCBD1]”: the “solubility in G1/S (log2)” value in data set [1] was found to be 0.0398. In addition, the results for the melting temperature in data set [2] (cell cycle stage: G1/S) and in data set [2] (cell cycle stage: mitosis) were 54.6 °C and 55.6 °C, respectively. Also, the “solubility change mitosis (log2)” value in data set [3] stood at 0.0567. The thermal stability score in data set [4] (setting [5]) was 1.22; in data set [4] (cell cycle stage: mitosis) it was -0.726.
As for “MEPAPARSPRPQQDPARPQEPTMPPPETPSEGRQPSPSPSPTERAPASEEEFQFLRCQQCQAEAKCPKLLPCLHTLCSGCLEASGMQCPICQAPWPLGADTPALDNVFFESLQRRLSVYRQIVDAQAVCTRCKESADFWCFECEQLLCAKCFEAHQWFLKHEARPLAELRNQSVREFLDGTRKTNNIFCSNPNHRTPTLTSIYCRGCSKPLCCSCALLDSSHSELKCDISAEIQQRQEELDAMTQALQEQDSAFGAVHAQMHAAVGQLGRARAETEELIRERVRQVVAHVRAQERELLEAVDARYQRDYEEMASRLGRLDAVLQRIRTGSALVQRMKCYASDQEVLDMHGFLRQALCRLRQEEPQSLQAAVRTDGFDEFKVRLQDLSSCITQGKDAAVSKKASPEAASTPRDPIDVDLPEEAERVKAQVQALGLAEAQPMAVVQSVPGAHPVPVYAFSIKGPSYGEDVSNTTTAQKRKCSQTQCPRKVIKMESEEGKEARLARSSPEQPRPSTSKAVSPPHLDGPPSPRSPVIGSEVFLPNSNHVASGAGEAEERVVVISSSEDSDAENSSSRELDDSSSESSDLQLEGPSTLRVLDENLADPQAEDRPLVFFDLKIDNETQKISQLAAVNRESKFRVVIQPEAFFSIYSKAVSLEVGLQHFLSFLSSMRRPILACYKLWGPGLPNFFRALEDINRLWEFQEAISGFLAALPLIRERVPGASSFKLKNLAQTYLARNMSERSAMAAVLAMRDLCRLLEVSPGPQLAQHVYPFSSLQCFASLQPLVQAAVLPRAEARLLALHNVSFMELLSAHRRDRQGGLKKYSRYLSLQTTTLPPAQPAFNLQALGTYFEGLLEGPALARAEGVSTPLAGRGLAERASQQS [PML]”, the “solubility in G1/S (log2)” value in data set [1] is -0.134. Further, the melting temperature in data set [2] (cell cycle stage: G1/S) amounted to 50.3 °C; in data set [2] (cell cycle stage: mitosis) it was 50.5 °C. The “solubility change mitosis (log2)” value in data set [3] turned out to be 0.33. Further, the figures for the thermal stability score in data set [4] (setting [5]) and in data set [4] (cell cycle stage: mitosis) were -0.223 and 2.23, respectively.
For the substance “MAAASGSVLQRCIVSPAGRHSASLIFLHGSGDSGQGLRMWIKQVLNQDLTFQHIKIIYPTAPPRSYTPMKGGISNVWFDRFKITNDCPEHLESIDVMCQVLTDLIDEEVKSGIKKNRILIGGFSMGGCMAIHLAYRNHQDVAGVFALSSFLNKASAVYQALQKSNGVLPELFQCHGTADELVLHSWAEETNSMLKSLGVTTKFHSFPNVYHELSKTELDILKLWILTKLPGEMEKQK [LYPLAL1]”, in data set [1], the “solubility in G1/S (log2)” value turned out to be 0.361. Moreover, the melting temperature in data set [2] (cell cycle stage: G1/S) was found to be 52 °C; in data set [2] (cell cycle stage: mitosis), 52.3 °C. In data set [3], the “solubility change mitosis (log2)” value is -0.0182. The thermal stability score amounted to 1.32 in data set [4] (setting [5]) and 0.974 in data set [4] (cell cycle stage: mitosis).
